The results in this text go back to the supplement of paper PMC10567573.

Sequences and labels used below:
B1: ANKRD44 (parent)
chain: FHCIETLVTTGANVNETDDWGRTA
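Also: lentivirally expressed fusions sorted by FACS into six bins by GFP to DsRed ratio, PSI derived from sequencing read proportions per bin multiplied by bin number.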

In this data set the parent is B1. The data set can be described thus: protein stability index of a GFP-peptide fusion (GPS, HEK-293T) (PSI 1-6); higher = more stable. Conditions: c terminus: a fixed tail appended.
For the variant FHCIETLVTTGANVNETDDWMRTA [G21M], the protein stability index is 2.04.
As for FHCIETLVTTGANVNETDDWYRTA [G21Y], the protein stability index came to 1.92.
With FHCIETLVTTGANVNETDDWIRTA [G21I], the protein stability index amounted to 2.24.
With FHCIETLVTTGANVNETDDWTRTA [G21T], the protein stability index stood at 2.25.
Then FHCIETLVTTGANVNETDDWARTA [G21A], with 2.12; and FHCIETLVTTGANVNETDDWSRTA [G21S], with 1.89; and FHCIETLVTTGANVNETDDWWRTA [G21W], with 2.48.
Take FHCIETLVTTGANVNETDDWQRTA [G21Q]: the protein stability index is 2.21.
FHCIETLVTTGANVNETDDWERTA [G21E]: the protein stability index is 2.33.
Then FHCIETLVTTGANVNETDDWDRTA [G21D], with 2.71.
Then FHCIETLVTTGANVNETDDWNRTA [G21N], with 1.68; and FHCIETLVTTGANVNETDDWPRTA [G21P], with 1.98; and FHCIETLVTTGANVNETDDWFRTA [G21F], with 1.87.
In the case of FHCIETLVTTGANVNETDDWKRTA [G21K], the protein stability index turned out to be 2.42.
As for FHCIETLVTTGANVNETDDWHRTA [G21H], the protein stability index was found to be 2.32.
Then FHCIETLVTTGANVNETDDWVRTA [G21V], with 2.27; and FHCIETLVTTGANVNETDDWLRTA [G21L], with 2.12; and FHCIETLVTTGANVNETDDWRRTA [G21R], with 2.5.
Then FHCIETLVTTGANVNETDDWCRTA [G21C], with 1.76; and FHCIETLVTTGANVNETDDPGRTA [W20P], with 2.61; and FHCIETLVTTGANVNETDDHGRTA [W20H], with 2.94.
As for FHCIETLVTTGANVNETDDFGRTA [W20F], the protein stability index was found to be 2.66.
Then FHCIETLVTTGANVNETDDIGRTA [W20I], with 2.4; and FHCIETLVTTGANVNETDDNGRTA [W20N], with 3.23; and FHCIETLVTTGANVNETDDMGRTA [W20M], with 2.47.
For FHCIETLVTTGANVNETDDYGRTA [W20Y], the protein stability index came out at 2.51.
Then FHCIETLVTTGANVNETDDLGRTA [W20L], with 3.26; and FHCIETLVTTGANVNETDDEGRTA [W20E], with 3.19; and FHCIETLVTTGANVNETDDVGRTA [W20V], with 2.77.
As for FHCIETLVTTGANVNETDDGGRTA [W20G], the protein stability index is 2.52.
In the case of FHCIETLVTTGANVNETDDSGRTA [W20S] it was 3; in that of FHCIETLVTTGANVNETDDRGRTA [W20R], 2.57; in that of FHCIETLVTTGANVNETDDDGRTA [W20D], 3.2.
Then FHCIETLVTTGANVNETDDAGRTA [W20A], with 2.99; and FHCIETLVTTGANVNETDDTGRTA [W20T], with 3.27; and FHCIETLVTTGANVNETDDKGRTA [W20K], with 3.03.
Then FHCIETLVTTGANVNETDDCGRTA [W20C], with 2.43.
As to FHCIETLVTTGANVNETDDQGRTA [W20Q], the protein stability index was found to be 2.66.
In the case of FHCIETLVTTGANVNETDSWGRTA [D19S] it was 1.72; in that of FHCIETLVTTGANVNETDEWGRTA [D19E], 2.49; in that of FHCIETLVTTGANVNETDNWGRTA [D19N], 1.75.
As for FHCIETLVTTGANVNETDKWGRTA [D19K], the protein stability index is 2.05.
On to FHCIETLVTTGANVNETDLWGRTA [D19L], for which the protein stability index amounted to 2.09.
On to FHCIETLVTTGANVNETDTWGRTA [D19T], for which the protein stability index was determined as 1.88.
Regarding FHCIETLVTTGANVNETDQWGRTA [D19Q], the protein stability index came out at 2.06.
Then FHCIETLVTTGANVNETDGWGRTA [D19G], with 1.79; and FHCIETLVTTGANVNETDFWGRTA [D19F], with 2.58; and FHCIETLVTTGANVNETDPWGRTA [D19P], with 2.26.
In the case of FHCIETLVTTGANVNETDHWGRTA [D19H], the protein stability index turned out to be 1.73.
With FHCIETLVTTGANVNETDRWGRTA [D19R], the protein stability index turned out to be 1.66.
With FHCIETLVTTGANVNETDCWGRTA [D19C], the protein stability index came out at 2.15.
Then FHCIETLVTTGANVNETDAWGRTA [D19A], with 1.56.
Then FHCIETLVTTGANVNETDYWGRTA [D19Y], with 2.43; and FHCIETLVTTGANVNETDVWGRTA [D19V], with 2.18.
Turning to FHCIETLVTTGANVNETDWWGRTA [D19W], the protein stability index turned out to be 2.44.
Regarding FHCIETLVTTGANVNETDIWGRTA [D19I], the protein stability index was 3.48.
FHCIETLVTTGANVNETDMWGRTA [D19M]: the protein stability index was found to be 2.
Regarding FHCIETLVTTGANVNMTDDWGRTA [E16M], the protein stability index turned out to be 1.56.
In the case of FHCIETLVTTGANVNYTDDWGRTA [E16Y] it was 2.32; in that of FHCIETLVTTGANVNQTDDWGRTA [E16Q], 1.45.
For FHCIETLVTTGANVNNTDDWGRTA [E16N], the protein stability index was 1.97.
Then FHCIETLVTTGANVNCTDDWGRTA [E16C], with 2.16.
Turning to FHCIETLVTTGANVNVTDDWGRTA [E16V], the protein stability index was found to be 1.64.
In the case of FHCIETLVTTGANVNATDDWGRTA [E16A], the protein stability index was found to be 1.98.
Then FHCIETLVTTGANVNHTDDWGRTA [E16H], with 2.32; and FHCIETLVTTGANVNRTDDWGRTA [E16R], with 1.76.
With FHCIETLVTTGANVNSTDDWGRTA [E16S], the protein stability index came to 1.78.
In the case of FHCIETLVTTGANVNGTDDWGRTA [E16G] it was 1.79; in that of FHCIETLVTTGANVNTTDDWGRTA [E16T], 1.53.
With FHCIETLVTTGANVNDTDDWGRTA [E16D], the protein stability index turned out to be 2.17.
Then FHCIETLVTTGANVNITDDWGRTA [E16I], with 1.52.
With FHCIETLVTTGANVNFTDDWGRTA [E16F], the protein stability index is 1.86.
Then FHCIETLVTTGANVNKTDDWGRTA [E16K], with 2.5; and FHCIETLVTTGANVNWTDDWGRTA [E16W], with 2.43; and FHCIETLVTTGANVNLTDDWGRTA [E16L], with 1.8.
FHCIETLVTTGANVNPTDDWGRTA [E16P]: the protein stability index is 2.
In the case of FHCIETLVTTGPNVNETDDWGRTA [A12P] it was 1.81.
In the case of FHCIETLVTTGMNVNETDDWGRTA [A12M] it was 2.14.
Consider FHCIETLVTTGSNVNETDDWGRTA [A12S], for which the protein stability index was 2.73.
As for FHCIETLVTTGWNVNETDDWGRTA [A12W], the protein stability index was 3.07.
Then FHCIETLVTTGLNVNETDDWGRTA [A12L], with 2.45; and FHCIETLVTTGQNVNETDDWGRTA [A12Q], with 2.09.
With FHCIETLVTTGNNVNETDDWGRTA [A12N], the protein stability index turned out to be 2.07.
Consider FHCIETLVTTGTNVNETDDWGRTA [A12T], for which the protein stability index was determined as 2.82.
As for FHCIETLVTTGVNVNETDDWGRTA [A12V], the protein stability index was determined as 1.59.
In the case of FHCIETLVTTGYNVNETDDWGRTA [A12Y] it was 1.88; in that of FHCIETLVTTGRNVNETDDWGRTA [A12R], 2.33.
Turning to FHCIETLVTTGANDNETDDWGRTA [V14D], the protein stability index was determined as 2.26.
With FHCIETLVTTGANLNETDDWGRTA [V14L], the protein stability index was determined as 2.08.
FHCIETLVTTGANWNETDDWGRTA [V14W]: the protein stability index worked out at 1.54.
In the case of FHCIETLVTTGANKNETDDWGRTA [V14K] it was 2.31.
As for FHCIETLVTTGANSNETDDWGRTA [V14S], the protein stability index is 2.41.
FHCIETLVTTGANENETDDWGRTA [V14E]: the protein stability index was determined as 3.04.
On to FHCIETLVTTGANPNETDDWGRTA [V14P], for which the protein stability index worked out at 2.71.
